{"source": "paper PMC4252830", "about": "(Insect biochemistry and molecular biology, 2014)", "key": {"[1]": {"target": "T1, AgEH (epoxide hydrolase from Anopheles gambiae) (Anopheles gambiae, UniProt Q7PZL6)", "T1 sequence (Q7PZL6 1-340)": "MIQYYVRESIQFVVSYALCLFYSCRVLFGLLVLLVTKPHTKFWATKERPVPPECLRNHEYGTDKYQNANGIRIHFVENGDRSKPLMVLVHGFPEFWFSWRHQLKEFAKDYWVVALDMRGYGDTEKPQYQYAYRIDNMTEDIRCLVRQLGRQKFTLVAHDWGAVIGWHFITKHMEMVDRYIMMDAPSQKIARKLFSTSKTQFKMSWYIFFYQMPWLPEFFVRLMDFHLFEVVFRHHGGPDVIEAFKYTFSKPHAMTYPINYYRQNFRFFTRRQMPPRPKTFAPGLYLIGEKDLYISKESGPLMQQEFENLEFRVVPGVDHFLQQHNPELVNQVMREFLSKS", "assay": "inhibition of […],15-EET hydrolysis by recombinant AgEH in Sf-9 microsomes", "type": "biochemical"}, "[2]": {"target": "T1, AgEH (epoxide hydrolase from Anopheles gambiae)", "assay": "% activity remaining on t-DPPO, recombinant AgEH in Sf-9 microsomes", "type": "cell-based", "settings": "read-out: t-DPPO / 500nM"}, "[3]": {"substrate": "CCCCC/C=C\\CC1OC1CCCCCCCC(=O)O", "assay": "Michaelis-Menten kinetics, LC-MS/MS, recombinant AgEH in Sf-9 microsomes", "type": "biochemical, Anopheles gambiae"}, "[4]": {"substrate": "CCCCCC1OC1C/C=C\\C/C=C\\C/C=C\\CCCC(=O)O", "assay": "Michaelis-Menten kinetics, LC-MS/MS, recombinant AgEH in Sf-9 microsomes", "type": "biochemical, Anopheles gambiae"}, "[5]": {"substrate": "COC(=O)/C=C(\\C)CC/C=C(\\C)CC[C@H]1OC1(C)C", "type": "biochemical, Anopheles gambiae"}, "[6]": {"substrate": "c1ccc(C[C@@H]2O[C@H]2c2ccccc2)cc1", "type": "biochemical, Anopheles gambiae"}}}
{"molecule": "O=C(O)CCCCCCCCCCCNC(=O)NC12CC3CC(CC(C3)C1)C2", "note": "[compound 1, 12-(3-adamantan-1-yl-ureido) dodecanoic acid]", "values": [{"measurement": "IC50", "setting": "[1]", "result": "~60", "unit": "nM"}]}
{"molecule": "O=C(Nc1ccc(OC(F)(F)F)cc1)N[C@H]1CC[C@H](Oc2ccc(C(=O)O)cc2)CC1", "note": "[compound 2, trans-4-{4-[3-(4-trifluoromethoxy-phenyl)-ureido]-cyclohexyloxy}-benzoic acid]", "values": [{"measurement": "activity at 0.5 µM", "setting": "[2]", "result": 12.5, "unit": "%"}]}
{"molecule": "AgEH (epoxide hydrolase from Anopheles gambiae) (Anopheles gambiae) (protein) MIQYYVRESIQFVVSYALCLFYSCRVLFGLLVLLVTKPHTKFWATKERPVPPECLRNHEYGTDKYQNANGIRIHFVENGDRSKPLMVLVHGFPEFWFSWRHQLKEFAKDYWVVALDMRGYGDTEKPQYQYAYRIDNMTEDIRCLVRQLGRQKFTLVAHDWGAVIGWHFITKHMEMVDRYIMMDAPSQKIARKLFSTSKTQFKMSWYIFFYQMPWLPEFFVRLMDFHLFEVVFRHHGGPDVIEAFKYTFSKPHAMTYPINYYRQNFRFFTRRQMPPRPKTFAPGLYLIGEKDLYISKESGPLMQQEFENLEFRVVPGVDHFLQQHNPELVNQVMREFLSKS", "values": [{"measurement": "Km", "setting": "[3]", "result": "7.0 ± 0.6", "unit": "µM"}, {"measurement": "Vmax", "setting": "[3]", "result": 1.5, "unit": "µmol/min/mg"}, {"measurement": "Vmax/Km", "setting": "[3]", "result": 210000, "unit": "µL/min/mg"}, {"measurement": "Km", "setting": "[4]", "result": "3.0 ± 0.3", "unit": "µM"}, {"measurement": "Vmax", "setting": "[4]", "result": 1.4, "unit": "µmol/min/mg"}, {"measurement": "Vmax/Km", "setting": "[4]", "result": 460000, "unit": "µL/min/mg"}, {"measurement": "Km", "setting": "[5]", "result": "9.8 ± 2.0", "unit": "µM"}, {"measurement": "Vmax", "setting": "[5]", "result": 1.3, "unit": "µmol/min/mg"}, {"measurement": "Vmax/Km", "setting": "[5]", "result": 130000, "unit": "µL/min/mg"}, {"measurement": "Km", "setting": "[6]", "result": "30.5 ± 5.0", "unit": "µM"}, {"measurement": "Vmax", "setting": "[6]", "result": 1.2, "unit": "µmol/min/mg"}, {"measurement": "Vmax/Km", "setting": "[6]", "result": 41000, "unit": "µL/min/mg"}]}
